Measurements as given in patent US6464983.

Columns and labels:
[1] = biological target: high affinity CTGF receptors on mouse fibroblasts (NTH3T3) (mouse); assay: 125I-rhCTGF binding to cells, competition binding assay
[2] = biological target: low affinity CTGF receptors on mouse fibroblasts (NTH3T3) (mouse); assay: as above
[3] = biological target: high affinity CTGF receptors on NRK-49F rat fibroblasts (rat); assay: 125I-rhCTGF binding to cell monolayers, Scatchard / competition with unlabeled CTGF
[4] = biological target: high affinity CTGF receptors on primary rat articular chondrocytes (rat); assay: as above
[5] = biological target: low affinity CTGF receptors on NRK-49F rat fibroblasts (rat); assay: as above
[6] = biological target: low affinity CTGF receptors on primary rat articular chondrocytes (rat); assay: as above

Q: With “iodinated recombinant human Connective Tissue Growth Factor (rhCTGF) (from UniProt P29279 27-349) (ligand)” as the substance, how does the Kd [1] read?
A: 0.005 to 0.01 nM

Q: And the Sites/cell [1]?
A: 480 sites/cell

Q: What about the Kd [2] of the same substance?
A: 1.8 nM

Q: What about the Sites/cell [2] of the same substance?
A: 102000 sites/cell

Q: And the Kd [3]?
A: 0.013 to 0.023 nM

Q: And the Kd [4]?
A: 0.021 nM

Q: What about the Kd [5] of the same substance?
A: 1.1 to 2.2 nM

Q: What about the Kd [6] of the same substance?
A: 1 nM

Q: What about the Sites/cell [6] of the same substance?
A: 150000 sites/cell
